Residue numbers refer to the chain shown, from its start. Numbers in names are those of the source. Blank lines part the entries; values can stand above or below the binder they belong to.
Key:
[1] = biological target: T1, purified TBC1D23 PH domain (545–684) (human, UniProt Q9NUY8-2 545-684); test: ITC; LKB1-LFa motif peptides (1.0 mM) titrated into TBC1D23 PH domain (50 µM) at 25 °C; 100 mM Tris pH 8.0, 500 mM NaCl, 5% v/v glycerol; conditions: both partners purified
T1 construct: Used as prey for GST-tagged baits on glutathione beads and in ITC, so the GST was probably removed
T1 sequence (Q9NUY8 560-699): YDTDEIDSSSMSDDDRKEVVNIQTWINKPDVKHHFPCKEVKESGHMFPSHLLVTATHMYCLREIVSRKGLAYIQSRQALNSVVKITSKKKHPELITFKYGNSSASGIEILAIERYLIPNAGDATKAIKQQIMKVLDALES

[2] = biological target: T2, purified GST-TBC1D23 PH domain (545–684) (human, UniProt Q9NUY8-2 545-684); test: pull-down; recombinant proteins: MBP or MBP-tagged LKB1 CRD-LFa held, purified GST-TBC1D23 PH as prey; same procedure as for GST-tagged proteins (50 mM Tris pH 8.0, 500 mM NaCl, 0.05% Triton X-100, 4 °C 1 h); conditions: both partners purified
T2 construct: also called purified TBC1D23 PH
T2 sequence (Q9NUY8 560-699): as above

B1: LKB1 LFa peptide WT (peptide)
peptide: GADEDEDLFDIEDDIIYTQD
notes: LKB1 (STK11) LFa motif peptide; also called LKB1-LFa motif peptide; LKB1-LFa WT
- Ka [1]: 1.25e+06 M⁻¹
- Kd [1]: 800 nM
- stoichiometry N [1]: 1

B2: LKB1 LFa peptide F354A (peptide)
peptide: GADEDEDLADIEDDIIYTQD
notes: LKB1 (STK11) LFa motif peptide with F354A; also called LKB1 F354A; LKB1-LFa mutants
- fold by which the affinity of LKB1 WT is higher [1]: ~3 fold

B3: LKB1 LFa peptide F354L (peptide)
peptide: GADEDEDLLDIEDDIIYTQD
notes: LKB1 (STK11) LFa motif peptide with F354L, a mutation reported in Peutz–Jeghers patients and present in gnomAD; also called LKB1 F354L; LKB1-LFa mutants
- fold by which the affinity of LKB1 WT is higher [1]: ~3 fold

B4: MBP-LKB1 CRD-LFa WT (domain or fragment, human, UniProt Q15831 347-433, looked up)
chain: ADEDEDLFDIEDDIIYTQDFTVPGQVPEEEASHNGQRRGLPKAVCMNGTEAAQLSTKSRAEGRAPNPARKACSASSKIRRLSACKQQ
notes: LKB1 (STK11) CRD, residues 347–433; also called LKB1 WT; LKB1 CRD (347–433)
- binding result [2]: binds

Second part, the binder after the results:

- binding result [2]: binds
B5: MBP-LKB1 CRD-LFa F354L (domain or fragment, human, UniProt Q15831 347-433, looked up)
chain: B4 chain with F8L
notes: LKB1 (STK11) CRD, residues 347–433, with F354L (reported in Peutz–Jeghers patients, present in gnomAD); also called LKB1 F354L

- binding result [2]: binds
B6: MBP-LKB1 CRD-LFa F354A (domain or fragment, human, UniProt Q15831 347-433, looked up)
chain: B4 chain with F8A
notes: LKB1 (STK11) CRD, residues 347–433, with F354A; also called LKB1 F354A

— PMC10899256, “TBC1D23 mediates Golgi-specific LKB1 signaling” (Nature Communications, 2024)
